According to publication PMC11811891, “Structural insights into human TFIIIC promoter recognition” (Science Advances, 2023):

Target: T1, human TFIIIC subunit TFIIIC220 (human, UniProt Q12789 1-2109)
T1 construct: TFIIIC220, largest subunit of human TFIIIC; 2109 amino acids as printed; No truncation is described; the expected mass of 624 kDa is that of the intact complex; also called τ138 in yeast (homolog); GTF3C1; source: Sf21 insect cells, baculovirus, coexpressed with the other five hTFIIIC subunits; purified (anti-FLAG M2 agarose, Capto HiRes Q); not shown: 3x FLAG, C-terminal, kept
T1 sequence (Q12789 whole entry, the tested form may be a part): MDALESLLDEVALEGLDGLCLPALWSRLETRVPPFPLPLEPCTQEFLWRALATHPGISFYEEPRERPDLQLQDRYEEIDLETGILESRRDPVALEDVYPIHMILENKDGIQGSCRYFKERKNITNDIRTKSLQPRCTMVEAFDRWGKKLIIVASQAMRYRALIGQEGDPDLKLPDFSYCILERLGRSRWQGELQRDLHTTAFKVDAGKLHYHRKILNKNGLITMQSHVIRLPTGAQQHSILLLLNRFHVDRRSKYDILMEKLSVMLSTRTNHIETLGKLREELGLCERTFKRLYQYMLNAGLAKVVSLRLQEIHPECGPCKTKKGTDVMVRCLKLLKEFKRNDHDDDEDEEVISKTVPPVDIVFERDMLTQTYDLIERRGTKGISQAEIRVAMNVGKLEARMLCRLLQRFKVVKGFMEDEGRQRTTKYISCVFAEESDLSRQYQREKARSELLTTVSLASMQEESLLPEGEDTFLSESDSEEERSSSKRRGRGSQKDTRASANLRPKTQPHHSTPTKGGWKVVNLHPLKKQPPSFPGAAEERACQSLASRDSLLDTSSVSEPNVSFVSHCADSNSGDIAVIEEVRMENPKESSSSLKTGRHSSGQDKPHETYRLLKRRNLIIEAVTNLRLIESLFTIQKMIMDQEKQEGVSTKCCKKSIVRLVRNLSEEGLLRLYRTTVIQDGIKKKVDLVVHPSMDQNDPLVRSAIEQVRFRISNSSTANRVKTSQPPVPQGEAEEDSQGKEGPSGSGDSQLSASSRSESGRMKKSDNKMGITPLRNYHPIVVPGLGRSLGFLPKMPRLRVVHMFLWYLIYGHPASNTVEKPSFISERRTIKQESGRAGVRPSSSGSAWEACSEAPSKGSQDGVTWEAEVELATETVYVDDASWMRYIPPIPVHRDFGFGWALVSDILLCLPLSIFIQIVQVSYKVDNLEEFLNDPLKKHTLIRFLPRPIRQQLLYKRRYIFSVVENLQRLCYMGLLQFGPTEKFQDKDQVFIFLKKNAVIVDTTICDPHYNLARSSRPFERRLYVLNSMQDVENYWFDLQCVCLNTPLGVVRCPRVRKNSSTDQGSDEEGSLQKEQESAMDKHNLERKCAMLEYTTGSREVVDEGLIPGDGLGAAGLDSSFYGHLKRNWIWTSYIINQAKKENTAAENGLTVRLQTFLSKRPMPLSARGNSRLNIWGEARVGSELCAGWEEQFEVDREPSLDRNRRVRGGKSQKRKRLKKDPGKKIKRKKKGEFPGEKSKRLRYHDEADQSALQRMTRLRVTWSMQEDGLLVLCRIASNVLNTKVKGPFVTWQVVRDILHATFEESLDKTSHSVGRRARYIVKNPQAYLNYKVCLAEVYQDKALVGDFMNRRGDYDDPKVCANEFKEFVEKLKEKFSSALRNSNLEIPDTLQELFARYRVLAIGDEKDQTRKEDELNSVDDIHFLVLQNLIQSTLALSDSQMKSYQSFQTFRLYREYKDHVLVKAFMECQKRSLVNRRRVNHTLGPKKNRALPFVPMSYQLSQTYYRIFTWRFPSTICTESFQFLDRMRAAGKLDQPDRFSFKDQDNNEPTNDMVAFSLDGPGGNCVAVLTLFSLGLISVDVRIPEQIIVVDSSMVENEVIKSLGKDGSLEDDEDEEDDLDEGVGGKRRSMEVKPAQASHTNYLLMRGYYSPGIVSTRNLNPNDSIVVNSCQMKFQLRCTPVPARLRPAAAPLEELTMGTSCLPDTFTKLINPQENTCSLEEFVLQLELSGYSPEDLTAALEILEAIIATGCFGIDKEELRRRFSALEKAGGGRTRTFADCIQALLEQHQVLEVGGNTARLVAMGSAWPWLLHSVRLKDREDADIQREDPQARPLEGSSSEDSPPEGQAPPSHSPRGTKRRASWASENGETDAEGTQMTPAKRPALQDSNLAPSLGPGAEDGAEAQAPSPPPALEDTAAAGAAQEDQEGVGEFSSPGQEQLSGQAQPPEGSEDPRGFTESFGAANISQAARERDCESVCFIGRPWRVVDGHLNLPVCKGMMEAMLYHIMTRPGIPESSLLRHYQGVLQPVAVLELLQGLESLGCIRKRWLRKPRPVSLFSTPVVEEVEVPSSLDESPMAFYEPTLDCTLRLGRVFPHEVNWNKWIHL
Assay: mass photometry; purified hTFIIIC alone; 1 μl of sample at 400 nM added to 19 μl of 20 mM Hepes pH 8, 150 mM KCl, 2 mM MgCl2, 5 mM DTT; Refeyn TwoMP; nanomolar concentrations
Settings: both partners purified

B1: human TFIIIC subunit TFIIIC90 (natural protein)
chain: MNTADQARVGPADDGPAPSGEEEGEGGGEAGGKEPAADAAPGPSAAFRLMVTRREPAVKLQYAVSGLEPLAWSEDHRVSVSTARSIAVLELICDVHNPGQDLVIHRTSVPAPLNSCLLKVGSKTEVAECKEKFAASKDPTVSQTFMLDRVFNPEGKALPPMRGFKYTSWSPMGCDANGRCLLAALTMDNRLTIQANLNRLQWVQLVDLTEIYGERLYETSYRLSKNEAPEGNLGDFAEFQRRHSMQTPVRMEWSGICTTQQVKHNNECRDVGSVLLAVLFENGNIAVWQFQLPFVGKESISSCNTIESGITSPSVLFWWEYEHNNRKMSGLIVGSAFGPIKILPVNLKAVKGYFTLRQPVILWKEMDQLPVHSIKCVPLYHPYQKCSCSLVVAARGSYVFWCLLLISKAGLNVHNSHVTGLHSLPIVSMTADKQNGTVYTCSSDGKVRQLIPIFTDVALKFEHQLIKLSDVFGSVRTHGIAVSPCGAYLAIITTEGMINGLHPVNKNYQVQFVTLKTFEEAAAQLLESSVQNLFKQVDLIDLVRWKILKDKHIPQFLQEALEKKIESSGVTYFWRFKLFLLRILYQSMQKTPSEALWKPTHEDSKILLVDSPGMGNADDEQQEEGTSSKQVVKQGLQERSKEGDVEEPTDDSLPTTGDAGGREPMEEKLLEIQGKIEAVEMHLTREHMKRVLGEVYLHTWITENTSIPTRGLCNFLMSDEEYDDRTARVLIGHISKKMNKQTFPEHCSLCKEILPFTDRKQAVCSNGHIWLRCFLTYQSCQSLIYRRCLLHDSIARHPAPEDPDWIKRLLQSPCPFCDSPVF
notes: TFIIIC90, subunit of human TFIIIC; coding gene from DNASU, codon-optimized for insect cells; No truncation is described; also called τ60 in yeast (homolog); source: Sf21 insect cells, baculovirus, coexpressed with the other five hTFIIIC subunits; purified (anti-FLAG M2 agarose, Capto HiRes Q)
Does B1 bind?
Result: binds

B2: human TFIIIC subunit TFIIIC63 (natural protein)
chain: MAAEAADLGLGAAVPVELRRERRMVCVEYPGVVRDVAKMLPTLGGEEGVSRIYADPTKRLELYFRPKDPYCHPVCANRFSTSSLLLRIRKRTRRQKGVLGTEAHSEVTFDMEILGIISTIYKFQGMSDFQYLAVHTEAGGKHTSMYDKVLMLRPEKEAFFHQELPLYIPPPIFSRLDAPVDYFYRPETQHREGYNNPPISGENLIGLSRARRPHNAIFVNFEDEEVPKQPLEAAAQTWRRVCTNPVDRKVEEELRKLFDIRPIWSRNAVKANISVHPDKLKVLLPFIAYYMITGPWRSLWIRFGYDPRKNPDAKIYQVLDFRIRCGMKHGYAPSDLPVKAKRSTYNYSLPITVKKTSSQLVTMHDLKQGLGPSGTSGARKPASSKYKLKDSVYIFREGALPPYRQMFYQLCDLNVEELQKIIHRNDGAENSCTERDGWCLPKTSDELRDTMSLMIRQTIRSKRPALFSSSAKADGGKEQLTYESGEDEEDEEEEEEEEEDFKPSDGSENEMETEILDYV
notes: TFIIIC63, subunit of human TFIIIC; coding gene from DNASU, codon-optimized for insect cells; No truncation is described; also called τ95 in yeast (homolog); GTC3C5 (so in the source); source: Sf21 insect cells, baculovirus, coexpressed with the other five hTFIIIC subunits; purified (anti-FLAG M2 agarose, Capto HiRes Q)
Does B2 bind?
Result: binds

B3: human TFIIIC subunit TFIIIC102 (natural protein)
chain: MSGFSPELIDYLEGKISFEEFERRREERKTREKKSLQEKGKLSAEENPDDSEVPSSSGINSTKSQDKDVNEGETSDGVRKSVHKVFASMLGENEDDEEEEEEEEEEEEEEETPEQPTAGDVFVLEMVLNRETKKMMKEKRPRSKLPRALRGLMGEANIRFARGEREEAILMCMEIIRQAPLAYEPFSTLAMIYEDQGDMEKSLQFELIAAHLNPSDTEEWVRLAEMSLEQDNIKQAIFCYTKALKYEPTNVRYLWERSSLYEQMGDHKMAMDGYRRILNLLSPSDGERFMQLARDMAKSYYEANDVTSAINIIDEAFSKHQGLVSMEDVNIAAELYISNKQYDKALEIITDFSGIVLEKKTSEEGTSEENKAPENVTCTIPDGVPIDITVKLMVCLVHLNILEPLNPLLTTLVEQNPEDMGDLYLDVAEAFLDVGEYNSALPLLSALVCSERYNLAVVWLRHAECLKALGYMERAAESYGKVVDLAPLHLDARISLSTLQQQLGQPEKALEALEPMYDPDTLAQDANAAQQELKLLLHRSTLLFSQGKMYGYVDTLLTMLAMLLKVAMNRAQVCLISSSKSGERHLYLIKVSRDKISDSNDQESANCDAKAIFAVLTSVLTKDDWWNLLLKAIYSLCDLSRFQEAELLVDSSLEYYSFYDDRQKRKELEYFGLSAAILDKNFRKAYNYIRIMVMENVNKPQLWNIFNQVTMHSQDVRHHRFCLRLMLKNPENHALCVLNGHNAFVSGSFKHALGQYVQAFRTHPDEPLYSFCIGLTFIHMASQKYVLRRHALIVQGFSFLNRYLSLRGPCQESFYNLGRGLHQLGLIHLAIHYYQKALELPPLVVEGIELDQLDLRRDIAYNLSLIYQSSGNTGMAQTLLYTYCSI
notes: TFIIIC102, subunit of human TFIIIC; No truncation is described; also called τ131 in yeast (homolog); GTF3C3; source: Sf21 insect cells, baculovirus, coexpressed with the other five hTFIIIC subunits; purified (anti-FLAG M2 agarose, Capto HiRes Q)
Does B3 bind?
Result: binds
